Results reported in patent US20110171229A1.

What was measured:
[1] = molecular target: chondroitin sulfate proteoglycan 4 (CSPG4) (human) (UniProt Q6UVK1); experiment: flow cytometry (FACS), whole cell population of MCF-7 cells
[2] = molecular target: chondroitin sulfate proteoglycan 4 (CSPG4) (human) (UniProt Q6UVK1); experiment: flow cytometry (FACS), CD44+/CD24-/lo putative CSC subpopulation of SUM-149 cells
[3] = molecular target: chondroitin sulfate proteoglycan 4 (CSPG4) (human) (UniProt Q6UVK1); experiment: flow cytometry (FACS), whole cell population of T-47D cells
[4] = molecular target: chondroitin sulfate proteoglycan 4 (CSPG4) (human) (UniProt Q6UVK1); experiment: flow cytometry (FACS), whole cell population of MDA-MB-231 cells
[5] = molecular target: chondroitin sulfate proteoglycan 4 (CSPG4) (human) (UniProt Q6UVK1); experiment: flow cytometry (FACS), CD44+/CD24-/lo putative CSC subpopulation of MCF-7 cells
[6] = molecular target: chondroitin sulfate proteoglycan 4 (CSPG4) (human) (UniProt Q6UVK1); experiment: flow cytometry (FACS), whole cell population of SK-BR-3 cells
[7] = molecular target: chondroitin sulfate proteoglycan 4 (CSPG4) (human) (UniProt Q6UVK1); experiment: flow cytometry (FACS), CD44+/CD24-/lo putative CSC subpopulation of HS578T cells
[8] = molecular target: chondroitin sulfate proteoglycan 4 (CSPG4) (human) (UniProt Q6UVK1); experiment: flow cytometry (FACS), CD44+/CD24-/lo putative CSC subpopulation of MDA-MB-435 cells
[9] = molecular target: chondroitin sulfate proteoglycan 4 (CSPG4) (human) (UniProt Q6UVK1); experiment: flow cytometry (FACS), whole cell population of SUM-149 cells
[10] = molecular target: chondroitin sulfate proteoglycan 4 (CSPG4) (human) (UniProt Q6UVK1); experiment: flow cytometry (FACS), whole cell population of MDA-MB-435 cells
[11] = molecular target: chondroitin sulfate proteoglycan 4 (CSPG4) (human) (UniProt Q6UVK1); experiment: flow cytometry (FACS), whole cell population of HS578T cells
[12] = molecular target: chondroitin sulfate proteoglycan 4 (CSPG4) (human) (UniProt Q6UVK1); experiment: flow cytometry (FACS), CD44+/CD24-/lo putative CSC subpopulation of MDA-MB-231 cells
[13] = molecular target: chondroitin sulfate proteoglycan 4 (CSPG4) (human) (UniProt Q6UVK1); experiment: flow cytometry (FACS), whole cell population of MDA-MB-435 cells; control antibody
[14] = molecular target: chondroitin sulfate proteoglycan 4 (CSPG4) (human) (UniProt Q6UVK1); experiment: flow cytometry (FACS), whole cell population of SK-BR-3 cells; control antibody
[15] = molecular target: chondroitin sulfate proteoglycan 4 (CSPG4) (human) (UniProt Q6UVK1); experiment: flow cytometry (FACS), CD44+/CD24-/lo putative CSC subpopulation of MCF-7 cells; control antibody
[16] = molecular target: chondroitin sulfate proteoglycan 4 (CSPG4) (human) (UniProt Q6UVK1); experiment: flow cytometry (FACS), whole cell population of MDA-MB-231 cells; control antibody
[17] = molecular target: chondroitin sulfate proteoglycan 4 (CSPG4) (human) (UniProt Q6UVK1); experiment: flow cytometry (FACS), whole cell population of T-47D cells; control antibody
[18] = molecular target: chondroitin sulfate proteoglycan 4 (CSPG4) (human) (UniProt Q6UVK1); experiment: flow cytometry (FACS), CD44+/CD24-/lo putative CSC subpopulation of SUM-149 cells; control antibody
[19] = molecular target: chondroitin sulfate proteoglycan 4 (CSPG4) (human) (UniProt Q6UVK1); experiment: flow cytometry (FACS), whole cell population of SUM-149 cells; control antibody
[20] = molecular target: chondroitin sulfate proteoglycan 4 (CSPG4) (human) (UniProt Q6UVK1); experiment: flow cytometry (FACS), CD44+/CD24-/lo putative CSC subpopulation of MDA-MB-435 cells; control antibody
[21] = molecular target: chondroitin sulfate proteoglycan 4 (CSPG4) (human) (UniProt Q6UVK1); experiment: flow cytometry (FACS), whole cell population of HS578T cells; control antibody
[22] = molecular target: chondroitin sulfate proteoglycan 4 (CSPG4) (human) (UniProt Q6UVK1); experiment: flow cytometry (FACS), CD44+/CD24-/lo putative CSC subpopulation of MDA-MB-231 cells; control antibody
[23] = molecular target: chondroitin sulfate proteoglycan 4 (CSPG4) (human) (UniProt Q6UVK1); experiment: flow cytometry (FACS), CD44+/CD24-/lo putative CSC subpopulation of HS578T cells; control antibody
[24] = molecular target: chondroitin sulfate proteoglycan 4 (CSPG4) (human) (UniProt Q6UVK1); experiment: flow cytometry (FACS), whole cell population of MCF-7 cells; control antibody
[25] = molecular target: chondroitin sulfate proteoglycan 4 (CSPG4) (human) (UniProt Q6UVK1); experiment: cell-based or functional assay

Sequence of UniProt Q6UVK1 (Q6UVK1 30-2322): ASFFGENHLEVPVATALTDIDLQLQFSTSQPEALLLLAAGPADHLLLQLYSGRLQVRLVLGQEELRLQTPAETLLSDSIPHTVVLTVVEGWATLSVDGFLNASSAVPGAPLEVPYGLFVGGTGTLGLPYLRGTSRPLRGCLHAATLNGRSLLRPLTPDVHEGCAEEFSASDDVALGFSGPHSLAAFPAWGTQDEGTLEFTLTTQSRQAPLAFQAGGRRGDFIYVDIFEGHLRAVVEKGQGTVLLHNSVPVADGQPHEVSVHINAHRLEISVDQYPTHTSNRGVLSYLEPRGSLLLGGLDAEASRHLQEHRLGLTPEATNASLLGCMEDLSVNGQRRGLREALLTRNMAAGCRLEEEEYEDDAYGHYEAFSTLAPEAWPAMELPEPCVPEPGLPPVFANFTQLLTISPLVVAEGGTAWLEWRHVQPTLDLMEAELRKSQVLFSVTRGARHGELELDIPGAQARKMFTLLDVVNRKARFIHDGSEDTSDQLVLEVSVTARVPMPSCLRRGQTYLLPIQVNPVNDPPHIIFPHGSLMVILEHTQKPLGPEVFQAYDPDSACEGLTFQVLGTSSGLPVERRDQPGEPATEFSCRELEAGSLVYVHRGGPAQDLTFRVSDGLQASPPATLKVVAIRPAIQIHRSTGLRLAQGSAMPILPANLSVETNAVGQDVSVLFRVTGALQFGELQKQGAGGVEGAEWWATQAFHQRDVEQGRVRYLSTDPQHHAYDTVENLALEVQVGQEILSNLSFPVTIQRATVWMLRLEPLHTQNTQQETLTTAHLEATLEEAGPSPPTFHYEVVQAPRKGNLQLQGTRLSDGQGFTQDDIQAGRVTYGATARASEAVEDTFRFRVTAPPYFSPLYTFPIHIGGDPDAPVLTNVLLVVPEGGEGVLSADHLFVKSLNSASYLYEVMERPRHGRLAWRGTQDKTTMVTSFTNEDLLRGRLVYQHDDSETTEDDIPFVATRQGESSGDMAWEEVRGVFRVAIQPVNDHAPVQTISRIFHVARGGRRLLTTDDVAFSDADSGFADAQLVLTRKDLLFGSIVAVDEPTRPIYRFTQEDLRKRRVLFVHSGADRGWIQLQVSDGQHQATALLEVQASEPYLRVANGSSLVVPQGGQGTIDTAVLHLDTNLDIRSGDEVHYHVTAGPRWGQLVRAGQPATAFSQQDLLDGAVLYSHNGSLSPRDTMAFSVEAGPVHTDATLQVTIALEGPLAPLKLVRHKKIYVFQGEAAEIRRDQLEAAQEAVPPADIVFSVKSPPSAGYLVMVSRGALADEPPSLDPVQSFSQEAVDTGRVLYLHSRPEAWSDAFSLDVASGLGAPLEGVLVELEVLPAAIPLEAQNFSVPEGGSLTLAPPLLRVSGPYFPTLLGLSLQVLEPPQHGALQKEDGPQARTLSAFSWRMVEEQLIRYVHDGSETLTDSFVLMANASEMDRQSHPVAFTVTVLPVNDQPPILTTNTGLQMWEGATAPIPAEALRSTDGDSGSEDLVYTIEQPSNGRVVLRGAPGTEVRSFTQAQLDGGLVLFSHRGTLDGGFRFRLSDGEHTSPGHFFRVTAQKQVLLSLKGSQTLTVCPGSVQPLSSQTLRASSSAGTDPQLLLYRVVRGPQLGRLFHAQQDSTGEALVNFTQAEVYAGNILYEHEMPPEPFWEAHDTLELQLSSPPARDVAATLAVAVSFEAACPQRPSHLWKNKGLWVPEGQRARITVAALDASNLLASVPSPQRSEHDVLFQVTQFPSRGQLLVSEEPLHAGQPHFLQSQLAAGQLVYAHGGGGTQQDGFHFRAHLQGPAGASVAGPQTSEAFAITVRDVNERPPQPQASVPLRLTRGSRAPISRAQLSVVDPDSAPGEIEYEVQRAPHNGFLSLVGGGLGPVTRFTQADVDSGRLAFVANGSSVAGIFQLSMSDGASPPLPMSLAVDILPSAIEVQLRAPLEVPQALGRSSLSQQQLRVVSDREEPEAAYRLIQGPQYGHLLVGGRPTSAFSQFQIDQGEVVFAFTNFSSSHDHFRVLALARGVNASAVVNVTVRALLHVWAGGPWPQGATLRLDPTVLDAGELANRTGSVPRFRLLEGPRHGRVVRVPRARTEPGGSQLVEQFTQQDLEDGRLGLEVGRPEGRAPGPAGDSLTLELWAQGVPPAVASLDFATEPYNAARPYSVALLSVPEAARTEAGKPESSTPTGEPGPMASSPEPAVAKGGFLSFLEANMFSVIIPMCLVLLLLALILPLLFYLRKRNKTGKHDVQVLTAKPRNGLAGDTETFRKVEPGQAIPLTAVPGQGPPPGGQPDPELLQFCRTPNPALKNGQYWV

In the case of CSPG4-specific mAb TP61.5 (antibody), the % of stained cells [1] is reported as 3.5%, the MFI [1] is reported as 7.8 and the % of stained cells [2] is reported as 51.2%. For the same substance, the MFI [2] was 10.5, the % of stained cells [3] was 0% and the MFI [3] was 2.3. It also gave a % of stained cells [4] of 68.3%, an MFI [4] of 86.3 and a % of stained cells [5] of 9.9%. For the same substance, the MFI [5] was 3.2, the % of stained cells [6] was 0.1% and the MFI [6] was 2.4. It also gave a % of stained cells [7] of 72.4%, an MFI [7] of 34.4 and a % of stained cells [8] of 98%. For the same substance, the MFI [8] was 93, the % of stained cells [9] was 51.1% and the MFI [9] was 19.6. The % of stained cells [10] was 82.4%, the MFI [10] was 61.1 and the % of stained cells [11] was 92.3%. For the same substance, the MFI [11] was 109, the % of stained cells [12] was 75.6% and the MFI [12] was 33.6.

Isotype control (antibody) showed a % of stained cells [13] of 0.7%, an MFI [13] of 9.1 and an MFI [14] of 4.3. For the same substance, the % of stained cells [15] was 0.6%, the MFI [15] was 1.8 and the % of stained cells [16] was 0.3%. It also gave an MFI [16] of 9.8, a % of stained cells [17] of 6.2% and an MFI [17] of 10.4. The % of stained cells [18] was 0.5%, the % of stained cells [19] was 2% and the MFI [19] was 2.7. The % of stained cells [20] was 0.5%, the MFI [20] was 3 and the % of stained cells [21] was 0.4%. The MFI [21] was 13, the % of stained cells [22] was 0.4% and the MFI [22] was 3.7. It also gave a % of stained cells [23] of 0.5%, an MFI [23] of 10 and a % of stained cells [24] of 0.7%. It also gave an MFI [24] of 6.2.

With CSPG4-specific mAb 225.28 (antibody) the % of stained cells [1] was 8.5%, the MFI [1] was 12 and the % of stained cells [2] was 95.7%. For the same substance, the MFI [2] was 179, the % of stained cells [3] was 13% and the MFI [3] was 3.8. The % of stained cells [4] was 83.8%, the MFI [4] was 53.8 and the % of stained cells [5] was 11.4%. The MFI [5] was 9.8, the % of stained cells [6] was 1.5% and the MFI [6] was 4.6. The % of stained cells [7] was 71.7%, the MFI [7] was 196 and the % of stained cells [8] was 99.7%. For the same substance, the MFI [8] was 694, the % of stained cells [9] was 93.4% and the MFI [9] was 193. The inhibition of adhesion of cells to fibronectin [25] was 45%, the inhibition of cell growth in a 3D matrix setting (TNBC cells) [25] was 70% and the inhibition of motility towards fibronectin in a Boyden chamber assay [25] was 56%. It also gave a % of stained cells [10] of 96.1%, an MFI [10] of 714 and a % of stained cells [11] of 66.7%. The MFI [11] was 379, the % of stained cells [12] was 85.7% and the MFI [12] was 53.8.

Work on CSPG4-specific mAb TP41.2 (antibody) yielded a % of stained cells [1] of 13.8%, an MFI [1] of 11.9 and a % of stained cells [2] of 1.4%. For the same substance, the MFI [2] was 2.7, the % of stained cells [3] was 0.3% and the MFI [3] was 2.7. For the same substance, the % of stained cells [4] was 88.4%, the MFI [4] was 142 and the % of stained cells [5] was 2.5%. For the same substance, the MFI [5] was 2.5, the % of stained cells [6] was 0.1% and the MFI [6] was 2.1. For the same substance, the % of stained cells [7] was 17.6%, the MFI [7] was 14.5 and the % of stained cells [8] was 91.9%. It also gave an MFI [8] of 40.4, a % of stained cells [9] of 0.9% and an MFI [9] of 2.8. For the same substance, the % of stained cells [10] was 86.8%, the MFI [10] was 63.3 and the % of stained cells [11] was 52.6%. The MFI [11] was 34.2, the % of stained cells [12] was 12% and the MFI [12] was 6.1.

With CSPG4-specific mAb 763.74 (antibody) the % of stained cells [1] was 17.4%, the MFI [1] was 13.8 and the % of stained cells [2] was 3%. For the same substance, the MFI [2] was 3.1, the % of stained cells [3] was 0.5% and the MFI [3] was 3.4. For the same substance, the % of stained cells [4] was 91.2%, the MFI [4] was 154 and the % of stained cells [5] was 2.6%. It also gave an MFI [5] of 2.4, a % of stained cells [6] of 0% and an MFI [6] of 2. It also gave a % of stained cells [7] of 33.9%, an MFI [7] of 17.6 and a % of stained cells [8] of 96.4%. The MFI [8] was 50.5, the % of stained cells [9] was 1.3% and the MFI [9] was 2.8. It also gave a % of stained cells [10] of 93.5%, an MFI [10] of 79.2 and a % of stained cells [11] of 61.4%. For the same substance, the MFI [11] was 39.2, the % of stained cells [12] was 16.6% and the MFI [12] was 6.9.
